Measurements taken from patent publication CN111705065A.

Target: 重组KRAS突变体蛋白 (KRAS Mut)
Assay: indirect ELISA, KRAS Mut coated at 1 μg/mL, antibody diluted 1:10^3 to 1:10^6, HRP goat anti-mouse, OD450

Chain of 重组KRAS突变体蛋白 (KRAS Mut) (chain, as listed by the source limits assumed): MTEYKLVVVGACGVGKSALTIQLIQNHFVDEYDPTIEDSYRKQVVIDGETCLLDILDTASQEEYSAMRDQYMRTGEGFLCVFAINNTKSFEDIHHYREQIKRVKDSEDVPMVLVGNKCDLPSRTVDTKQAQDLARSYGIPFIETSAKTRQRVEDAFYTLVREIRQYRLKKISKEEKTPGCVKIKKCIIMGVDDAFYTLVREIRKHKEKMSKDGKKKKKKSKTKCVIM

B1: 抗KRAS突变体单克隆抗体 KRAS Mut mAb (antibody, V domains shown)
VH: QIQLQESGPGLVKPSQSLSLTCTVTGYSITSDYAWNWIRQFPGNKLEWMGYINYSGSTSYNPSLKSRISITRDTSKNQFFLQLISVTSEDTATYYCAGSGYVRGFAYWGQGTLVTVSA
VL: DICKTQSHKFMSTSVGDRVSITCKASQDVGTAVAWYQQKPGQSPKLLIYWASTRHTGVPDRFTGSESGTDFTLTISNVQSEDLADYFCQQYSSYPYTFGGGTKLEIKR
- 效价 (ELISA titer) (dilution factor (1:x)): 100000
